Test results taken from IntAct's records for PubMed 23804756.

B1: MIF4G domain-containing protein (Homo sapiens), A9UHW6 (parent)
chain: MGEPSREEYKIQSFDAETQQLLKTALKDPGAVDLEKVANVIVDHSLQDCVFSKEAGRMCYAIIQAESKQAGQSVFRRGLLNRLQQEYQAREQLRARSLQGWVCYVTFICNIFDYLRVNNMPMMALVNPVYDCLFRLAQPDSLSKEEEVDCLVLQLHRVGEQLEKMNGQRMDELFVLIRDGFLLPTGLSSLAQLLLLEIIEFRAAGWKTTPAAHKYYYSEVSD

Variants of: B1
Settings: with slbp_human SLBP

effect of a mutation on the interaction | Variant
decreasing interaction strength | R77A;N81A;Q84A
